{"source": "paper PMC10403728", "about": "“Interactions between Fkh1 monomers stabilize its binding to DNA replication origins” (The Journal of Biological Chemistry, 2023)", "target": "the molecule itself", "assay": "SEC + other: glycerol gradient sedimentation; purified FLAG-Fkh1; Superdex 200 5/150 GL in 150N buffer (25 mM Hepes-NaOH pH 7.6, 150 mM NaCl, 10% glycerol, 1 mM β-mercaptoethanol); main-peak and shoulder fractions on 10 to 15% glycerol gradients, 180,000g, 18 h, 4 °C; approximate molecular weight from Stokes radius and S value; monomer and dimer", "data": [{"protein": "full-length Fkh1 (natural protein, Saccharomyces cerevisiae, UniProt P40466 1-484, looked up, Fkh1, Forkhead family transcription factor of Saccharomyces cerevisiae, full length (the truncation Δ410–484 tells a length of 484 residues); also called wild-type Fkh1; FLAG-tagged full-length Fkh1; source: S. cerevisiae (W303 derivative), GAL1-10 promoter, galactose-induced; also in whole-cell extract of a strain co-expressing two differently tagged copies; not shown: FLAG, N-terminal, kept) MSVTSREQKFSGKYSSYTAQDRQGLVNAVTCVLSSSSDPVAVSSDYSNSLSIAREVNAYAKIAGCDWTYYVQKLEVTIGRNTDSLNLNAVPGTVVKKNIDIDLGPAKIVSRKHAAIRFNLESGSWELQIFGRNGAKVNFRRIPTGPDSPPTVLQSGCIIDIGGVQMIFILPEQETIISDYCLNHLMPKLLSTYGTNGNNNPLLRNIIEGSTYLREQRLQEEARLQQLDHLHTPLSSSSDVNPIGDPHGDTIMMEEDEEDENYTRGGIRPNTYTSSSNNAVTNGNVPHIENPSDLSLDENRYIKPPQSYASMITQAILSTPEGSISLADIYKFISDNYAFYRFSQMAWQNSVRHNLSLNKAFEKVPKRAGQQGKGMNWKISDEVRRDFLNKWNAGKLSKIRRGASVTRQLQLHMSKFGEIPAPESSSIDPRGIKAQKVKKSLQATSSILGESAPQLQRTQLTGQISTTTSMDVTTNANVNNSSLS", "values": [{"measurement": "stoichiometry N", "value": 2}]}]}
